Test results taken from the DeepSol protein solubility set.

Assay: soluble on expression in E. coli; label from the status in PepcDB or PDB records

| Sequence | soluble on expression in E. coli |
| --- | --- |
| MGSDKIHHHHHHQIQQQSPYPKREFRGAWIQAVNGQFRGIPTEKLKQTLIDQLNSLQGAGINAIIFQVRPEADALYASQLEPWSRFLTGVQGQAPSPYWDPMQFMIDECHKRGMEFHAWINPYRVKTSLKSELSANHLYNIHPEWFVTYNNQLFFDPALPESRRHICMVVADIVSRYDVDAIHMDDYFYPYPAKGMDFPDDASFARYGGGFTNRADWRRSNVNILIQKIHETIRGLKPWVKFGISPFGIYRNEKNDPLGSKTNGLQNYDDLYADVLLWARNGWVDYNIPQIYWQIGHPAADYETLVKWWAKNTENRPLFIGQSVMNTIQNADPKNPSMNQLPRKMALERAYQTIGGSCQWPASAVVENAGKYRDALVQEYHKYPALVPVFDFMDDKAPGKVRKVKKVWTEDGYMLFWTPPKAKDEMDRAVQYVVYRFGDKEKVNIDDASHIVAVTRNNFYKLPYKDGKNKYRYVVTALDRLHNESKSVSKKVKL | not soluble |
| SHMRVLVCGGAGYIGSHFVRALLRDTNHSVVIVDSLVGTHGKSDHVETRENVARKLQQSDGPKPPWADRYAALEVGDVRNEDFLNGVFTRHGPIDAVVHMCAFLAVGESVRDPLKYYDNNVVGILRLLQAMLLHKCDKIIFSSSAAIFGNPTMGSVSTNAEPIDINAKKSPESPYGESKLIAERMIRDCAEAYGIKGICLRYFNACGAHEDGDIGEHYQGSTHLIPIILGRVMSDIAPDQRLTIHEDASTDKRMPIFGTDYPTPDGTCVRDYVHVCDLASAHILALDYVEKLGPNDKSKYFSVFNLGTSRGYSVREVIEVARKTTGHPIPVRECGRREGDPAYLVAASDKAREVLGWKPKYDTLEAIMETSWKFQRTHPNGYASQENGTPGGRTTKL | soluble |
| GPSPVGQQYHVEKFSGLRIRKPRVSSSEMERKMNGRKLIRLAQLQNKIATEKLEEEDWVTFGVIVKKITPQSSNNGKTFSIWRLNDLKDLDKYISLFLFGDVHKEHWKTDQGTVIGLLNANPMKPKEGTDEVCLSVDNPQKVLLMGDAVDLGTCKARKKNGDPCTQMVNLNDCEYCQYHVQAQYKKVSSKRADLQSSYSG | soluble |
| MSLANLYLMRSRSDELNTIISTNLLKNYSKIYKNIAIYCPVIYIHRVPVLQGWLEEFNINQTVKSAYGFTFREAMEEFSKDPHNFFNVILEEYEELKRKYDFVLVNSFCEFGILDGFDLSIKLAKNLNTPIAAIINDEDKLIAQKYFDHALDGRNYVLINENFNFEEVQKLKEYDFITPHRFKYELIKQSIKNKKTVVLPESNDERILKAAEILLKSKVVDLILLGDEEKIKQDATRLSLDLSAMQIMNPLNSEYNQKFTSILYEARKSKGMSLEEAKMLVQDKTYFGTLLIHTGKADAMVSGASTTTAETIRPALQLIKTKEGISSVSGIFFMGLEDQVLAFADCAVNPSPTAEQLATSAYVSAMTAKSFGLEPRIALLSYSSGDSGKGESVDLVKEALKIAKEKYPELNIDGPMQFDCAYDPKTAAKKMPNSKIAGHANVYIFPDLNAANICYKAVQRTANALAIGPILQGLKKPVNDLSRGCLVDDIVDTVILSAIQAQEGHHHHHH | soluble |
| MGSDKIHHHHHHMAPLRIRYQTHEFGVLDIHIRTLRDNQEFEDINGEAEKLGISSATWPLFGIVWPSEQVLSHHMLDYPIEGKRILEVGCGIGLASLVLNHRLADITATDYHPETGSFLSQNVALNKGRTIPFVRTGWADETSKLGLFDLIIGSDLLYEQEHADLLSQFIEQHAKPICDVILVDPGRGNHAKFSKRMVTLGYEHSQHKPIHTEFLLAPFGGQILSYSRTKS | not soluble |
| GMKPLKEVVGAYLALSDAQRQLVAGEYDEAAANCRRAMEISHTMPPEEAFDHAGFDAFCHAGLAEALAGLRSFDEALHSADKALHYFNRRGELNQDEGKLWISAVYSRALALDGLGRGAEAMPEFKKVVEMIEERKGETPGKERMMEVAIDRIAQLGAS | soluble |
| MKNNADYIEMKVPAQPEYVGIIRLTLSGVASRMGYTYDEIEDLKIAVSEACTNAVQHAYKEDKNGEVSIRFGVFEDRLEVIVADEGDSFDFDQKQQDLGPYTPSHTVDQLSEGGLGLYLMETLMDEVRVQNHSGVTVAMTKYLNGERVDHDTTIKNYETN | soluble |
| MNGGGKNVLNKNSVGSVSEVGPDSTQEETPRDVRLLHLLLASQSIHQYEDQVPLQLMDFAHRYTQGVLKDALVYNDYAGSGNSAGSGLGVEDIRLAIAARTQYQFKPTAPKELMLQLAAERNKKALPQVMGTWGVRLPPEKYCLTAKEWDLEDPKSM | not soluble |
| AKKAMEQILIPVANPETIENLVNLALVIKDAKQKNGMIALNVINDNNSSENKELQGKRNLEKAAMIAAAADVPVTMVSRYDLNIASGIIHTIKEYEATDVVIGLHRKANIVDSFFGNLAESLLKGTHREVMIAKFLM | not soluble |
| MGSDKIHHHHHHAGELNLYSMNTGSYVYHMTGNHGQYNEHFNNNFFSVERKFSQDSKYSVLVGTMKNSFDDRCLTLGVRRDWLKNDTGWVLKGVYAYTGEFFFDAFSHCGDSGTYRTAKKITGIGFSPYLYHGLQYNFTDYFGVEGGIIVPAIFVMSVQWSFR | not soluble |
| MESGPAVCCQDPRAELVDRVAAINVAHLEEADEGPEPARNGVDPPPRARAASVIPGSASRPTPVRPSLSARKFSLQERPAGSCLGAQVGPYSTGPASHISPRSWRRPTIESHRVAISDTEDCVQLNQYKLQSEIGKGAYGVVRLAYNESEDRHYAMKVLSKKKLLKQYGFPRRPPPRGSQATQGGPAKQLLPLERVYQEIAILKKLDHVNVVKLIEVLDDPAEDNLYLVFDLLRKGPVMEVPCDKPFPEEQARLYLRDIILGLEYLHCQKIVHRDIKPSNLLLGDDGHVKIADFGVSNQFEGNDAQLSSTAGTPAFMAPEAISDSGQSFSGKALDVWATGVTLYCFVYGKCPFIDDYILTLHRKIKNEAVVFPEEPEVSEDLKDLILRMLDKNPETRIGVSDIKLHPWVTKHGEEPLPSEEEHCSVVEVTEEEVKNSVRLIPSWTTVILVKSMLRKRSFGNPFEPQARREERSMSAPGSLLMKEGCGEGCKSPELPGVQEDEAAS | soluble |
| MLDMELESFLSMEKQGDISDAFLSAVKAEMQQMVLYAAGLAVRNIEETNRLRQKAKELYFYYLERYSPLAEMYKGSEMSLHNAGTATLRGHKNLAGGKRIDIGLWDGSKEFFHEYCYLPDDVQIRLFISKIQLLHFVVGAITTPQYVEKVALLGKVVGSSRYLELLRSFIDLNDPSGKNYSRGLFFYDHKFDKLEEVGKEVGENLPEVIKRFFPDKWVLVDVWATWCSPCKKEFGYNKQLHAFLEEKGIAMLYCSVDEPENSDNWRNNLSAFGLTGYHYYITSKAEKELLKIPDFRMLIPRYLLFDNKGKLVHANLPRPSSEKALYEEIEKLMQGN | not soluble |
| MSLKDYRLFLIDLDGTIYRGKETIESGVRFVKRLDEAGLDYLFLTNNTTRTPQMVADKLAGHGVKTDVSKIYTPSMATASYILEKEAKRPIGVYIIGQIGLWKEILDRPEFYYDEENPDYVIVGMDTDLTYHKLMVATRCIHRGAVFIGTNSDQNLPVGKELRPGNGSICAALEVASGQKPLFIGKPEAIIVNRALDLAGVKAEEALIVGDNYPTDIMAGINSGVDTLLTLTGVTQKADLAGLTPPTYLVNDLDEFSEGHHHHHH | soluble |
| SLLIVYNEYLIHIYHSFQWAELQCETDSCIKMLLVADPQILGNTFDTKLYWPLANFDSDRHLKRTYKSVVQHAAPDVICFLGDLMDEGSVANDDQFAAYFTRFVNIFSQPTANTIMFYIPGDNDIGGEGLETIKSDRVLRFKQYFNEQDELTIDPMLRILNVNRISMTLPMNSAPSTEEPQPYTVLLSHMPILRWSDPFTYKVIDDFQPNVIFSAHEHKSRHVKTHRNQLTQGAPFEPLNTERSNRHEVVEFDLNYLKDTRELLEFIVPTCSYRMGEMKIGYGYAMFDGDKLRYTVLWTSQRFYQ | soluble |
| MGSDKIHHHHHHMYKTYREEERKSVDRGIFKEVPLPCAFLDEVALDRNIQLIIELSGNKKIRIASKSLRSVPVMQKILAANDRFQGIMCFSPREVLFLIEQGFNDLLLGYPAYDDRALHEISLLTKQGLIITCMVDCEDHIVYLEKIAEKSKGCFRVCLDIDMSSRFLNFHFGVKRSPVRDVQGALKIVKRLKESSFLILDGVMGYEAQIAGVGDHIPNQRVKSKVISYLKKKSVLEVKARRGHIVKEIQNLGIELRFVNGGGTGSIKTTEQDHSVSEITIGSAFYAPKLFDYYKEVQLQPAVGFALPVVRKPAPTIYTCLGGGYIASGAIGKDKEPEIWRPNGAKLLALEGAGEVQTPIFYNGEERVEIGDSILFRHSKAGELCERFPFLYRVKEGEIVGEYSTYRGDGQCFL | not soluble |
| MVILLPMVTFTMAYLIVDVPKPGDIRTNQVSTILASDGSEIAKIVPPEGNRVDVNLSQVPMHVRQAVIAAEDRNFYSNPGFSFTGFARAVKNNLFGGDLQGGSTITQQYVKNALVGSAQHGWSGLMRKAKELVIATKMSGEWSKDDVLQAYLNIIYFGRGAYGISAASKAYFDKPVEQLTVAEGALLAALIRRPSTLDPAVDPEGAHARWNWVLDGMVETKALSPNDRAAQVFPETVPPDLARAENQTKGPNGLIERQVTRELLELFNIDEQTLNTQGLVVTTTIDPQAQRAAEKAVAKYLDGQDPDMRAAVVSIDPHNGAVRAYYGGDNANGFDFAQAGLQTGSSFKVFALVAALEQGIGLGYQVDSSPLTVDGIKITNVEGEGCGTCNIAEALKMSLNTSYYRLMLKLNGGPQAVADAAHQAGIASSFPGVAHTLSEDGKGGPPNNGIVLGQYQTRVIDMASAYATLAASGIYHPPHFVQKVVSANGQVLFDASTADNTGDQRIPKAVADNVTAAMEPIAGYSRGHNLAGGRDSAAKTGTTQFGDTTANKDAWMVGYTPSLSTAVWVGTVKGDEPLVTASGAAIYGSGLPSDIWKATMDGALKGTSNETFPKPTEVGGYAGVPPPPPPPEVPPSETVIQPTVEIAPGITIPIGPPTTITLAPPPPAPPAATPTPPP | soluble |
| MTVTSMLDNVLRIATRQSPLALWQAHYVKDALMATHPGLTVELVPMVTRGDVILDTPLAKVGGKGLFVKELEIALLEKRADIAVHSMKDVPVAFPDGLGLVTICEREDPRDAFVSNKYHSLDDLPAGSIVGTSSLRRQCQLAERRPDLIIRSLRGNVGTRLGKLDNGDYDAIILAVAGLKRLGLESRIRTALPPDVSLPAVGQGAVGIECRLDDARTQALLAPLNHSQTALRVTAERAMNTRLEGGCQVPIGSYAEIINGEIWLRALVGAPDGSVMVRGERRGSPEQAEQMGISLAEELLENGARAILTEVYNGETPA | not soluble |
| MGSDKIHHHHHHMSRGIYIVANDRVIDNAIALLNSIRYYDPEVTIYLIPFNENYHKVAEQLSTLHKVQIFPDLELIDKFTKRIGEIFDRDFLALPNKMRKLVAWFGPLDEFIYIDTDIVVFEKIADNLDKLSEVDFFCCDYHYANDKLRNIFSPFVKEQQLFSDAQLQDVFNSGFWASRKGVITEEQMDEALRECAAHREYFDFSEGVTDQPILNYLVLKLIDKRGNLVKIPGGGPGSWAGSQSFQQQDYALYDRGQRLKYLHWAGTRMKTGSPYWQLWEHYRYLHEGKFAFISKLTRRLFPFVAART | not soluble |
| MLEKNPTLEKLLKSLEDIQAIDIKIIDVHKQTTITDFMVVTSGRSSRHVKSIAQKVLEDMKVAGLPCLSSTGIEHGDWALIDFGDIILHVMQPEFRHFYNLEGLWEEHPGNSLEHHHHHH | not soluble |
